System: Escherichia coli TOP10
Test: shrunken log2 fold change of peptide-encoding DNA abundance (4.5 h post-induction vs induction); higher = less antimicrobial activity (less host growth inhibition)
Conditions: time post-induction: 4.5 h; library: site-saturation at positions 5, 18, 19, 20
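Also: peptides expressed intracellularly from a pBAD plasmid library in pooled LB shake-flask culture, induced with 0.3% L-arabinose, DNA abundance read by NGS, three biological replicates, DESeq2 with apeglm shrinkage.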

Sequence	shrunken log2 fold change
RRIRMRPPRLPRPRPRPARCPRP	1.16
RRIRIRPPRLPRPRPRPVYSPRP	-0.102
RRIRMRPPRLPRPRPRPVTAPRP	0.57
RRIRHRPPRLPRPRPRPIMVPRP	-0.000687
RRIRERPPRLPRPRPRPFRSPRP	-0.0241
RRIRVRPPRLPRPRPRPWRYPRP	0.0359
RRIRFRPPRLPRPRPRPNYRPRP	0.055
RRIRSRPPRLPRPRPRPRISPRP	0.0353
RRIRKRPPRLPRPRPRPFWWPRP	0.592
RRIRLRPPRLPRPRPRPHEVPRP	-0.0201
RRIRHRPPRLPRPRPRPSTFPRP	-0.0458
RRIRMRPPRLPRPRPRPVARPRP	0.407
RRIRHRPPRLPRPRPRPHLMPRP	-0.177
RRIRTRPPRLPRPRPRPRWKPRP	0.0709
RRIRTRPPRLPRPRPRPEATPRP	1.05
RRIRERPPRLPRPRPRPSNSPRP	-0.0251
RRIRYRPPRLPRPRPRPQGCPRP	-0.557
RRIRNRPPRLPRPRPRPRADPRP	0.327
RRIRKRPPRLPRPRPRPREYPRP	0.261
RRIRSRPPRLPRPRPRPFVVPRP	-0.0648
RRIRFRPPRLPRPRPRPCIWPRP	0.25
RRIRVRPPRLPRPRPRPNKSPRP	-0.348
RRIRMRPPRLPRPRPRPDNTPRP	0.28
RRIRTRPPRLPRPRPRPAGIPRP	-0.0928
RRIRRRPPRLPRPRPRPKMSPRP	0.274

Sequence	shrunken log2 fold change
RRIRHRPPRLPRPRPRPATTPRP	-0.101
RRIRLRPPRLPRPRPRPWDEPRP	0.066
RRIRVRPPRLPRPRPRPPTCPRP	0.141
RRIRMRPPRLPRPRPRPMYKPRP	-0.472
RRIRVRPPRLPRPRPRPTEVPRP	0.0934
RRIRLRPPRLPRPRPRPMIGPRP	0.0237
RRIRKRPPRLPRPRPRPHSRPRP	0.147
RRIRTRPPRLPRPRPRPGEAPRP	0.282
RRIRRRPPRLPRPRPRPQRVPRP	0.155
RRIRQRPPRLPRPRPRPYGQPRP	-0.239
RRIRWRPPRLPRPRPRPFTGPRP	0.0256
RRIRGRPPRLPRPRPRPRMPPRP	0.605
RRIRLRPPRLPRPRPRPHNDPRP	-0.452
RRIRCRPPRLPRPRPRPAMGPRP	-0.0638
RRIRIRPPRLPRPRPRPMYQPRP	-0.862
RRIRTRPPRLPRPRPRPIVCPRP	-0.246
RRIRFRPPRLPRPRPRPFIIPRP	-0.816
RRIRNRPPRLPRPRPRPNMRPRP	0.23
RRIRRRPPRLPRPRPRPPFHPRP	0.321
RRIRVRPPRLPRPRPRPKWYPRP	-0.194
RRIRFRPPRLPRPRPRPQWQPRP	-0.08
RRIRQRPPRLPRPRPRPDMVPRP	-0.0075
RRIRRRPPRLPRPRPRPHTVPRP	0.0423
RRIRRRPPRLPRPRPRPKRKPRP	0.099
RRIRFRPPRLPRPRPRPIADPRP	-0.0956

Sequence	shrunken log2 fold change
RRIRSRPPRLPRPRPRPCAMPRP	-0.173
RRIRHRPPRLPRPRPRPLWKPRP	-0.102
RRIRFRPPRLPRPRPRPKTCPRP	0.0353
RRIRNRPPRLPRPRPRPEMYPRP	-0.0311
RRIRKRPPRLPRPRPRPTFWPRP	0.36
RRIRVRPPRLPRPRPRPKRVPRP	0.0344
RRIRDRPPRLPRPRPRPVQHPRP	-0.012
RRIRLRPPRLPRPRPRPSPVPRP	-0.186
RRIRQRPPRLPRPRPRPEREPRP	0.0841
RRIRMRPPRLPRPRPRPKMMPRP	0.351
RRIRYRPPRLPRPRPRPDRWPRP	-0.118
RRIRVRPPRLPRPRPRPMVEPRP	0.303
RRIRERPPRLPRPRPRPDVSPRP	0.0276
RRIRMRPPRLPRPRPRPRCFPRP	0.397
RRIRWRPPRLPRPRPRPNNWPRP	-0.0483
RRIRARPPRLPRPRPRPTNRPRP	0.05
RRIRWRPPRLPRPRPRPDHVPRP	-0.13
RRIRNRPPRLPRPRPRPHHDPRP	-1.01
RRIRCRPPRLPRPRPRPDDAPRP	-0.0228
RRIRIRPPRLPRPRPRPPFKPRP	0.228
RRIRLRPPRLPRPRPRPPDHPRP	0.0205
RRIRVRPPRLPRPRPRPHLPPRP	-0.0222
RRIRMRPPRLPRPRPRPSREPRP	0.545
RRIRFRPPRLPRPRPRPLWFPRP	0.00985
RRIRNRPPRLPRPRPRPYHKPRP	-2.76

Sequence	shrunken log2 fold change
RRIRNRPPRLPRPRPRPITHPRP	-0.644
RRIRPRPPRLPRPRPRPMLFPRP	-0.0744
RRIRTRPPRLPRPRPRPMITPRP	-0.0731
RRIRFRPPRLPRPRPRPYMHPRP	-0.72
RRIRDRPPRLPRPRPRPWKPPRP	-0.35
RRIRVRPPRLPRPRPRPDWIPRP	-0.218
RRIRCRPPRLPRPRPRPVYFPRP	-0.711
RRIRIRPPRLPRPRPRPFQEPRP	-0.0383
RRIRWRPPRLPRPRPRPNVQPRP	-0.0399
RRIRVRPPRLPRPRPRPMDIPRP	-0.308
RRIRTRPPRLPRPRPRPRFFPRP	0.0438
RRIRPRPPRLPRPRPRPKGQPRP	0.205
RRIRLRPPRLPRPRPRPHHAPRP	-0.058
RRIRPRPPRLPRPRPRPSKIPRP	-0.129
RRIRMRPPRLPRPRPRPNMHPRP	-0.0148
RRIRHRPPRLPRPRPRPNEWPRP	-0.0925
RRIRPRPPRLPRPRPRPFDSPRP	-0.0336
RRIRWRPPRLPRPRPRPHSTPRP	-0.209
RRIRTRPPRLPRPRPRPLEAPRP	0.115
RRIRCRPPRLPRPRPRPVKLPRP	-0.176
RRIRCRPPRLPRPRPRPYNDPRP	-0.456
RRIRYRPPRLPRPRPRPCMEPRP	-0.0771
RRIRWRPPRLPRPRPRPQEGPRP	-0.00127
RRIRDRPPRLPRPRPRPVAFPRP	0.589
RRIRHRPPRLPRPRPRPEMHPRP	0.0592

Sequence	shrunken log2 fold change
RRIRFRPPRLPRPRPRPCQNPRP	0.0482
RRIRFRPPRLPRPRPRPQKTPRP	0.00435
RRIRTRPPRLPRPRPRPWDCPRP	-0.000687
RRIRYRPPRLPRPRPRPPIHPRP	-0.958
RRIRCRPPRLPRPRPRPHIDPRP	-0.42
RRIRSRPPRLPRPRPRPKQAPRP	-0.0378
RRIRVRPPRLPRPRPRPNHCPRP	-0.181
RRIRARPPRLPRPRPRPWYIPRP	-0.257
RRIRKRPPRLPRPRPRPCSGPRP	0.00663
RRIRLRPPRLPRPRPRPYTIPRP	-0.048
RRIRSRPPRLPRPRPRPIHWPRP	0.151
RRIRQRPPRLPRPRPRPFYDPRP	-0.208
RRIRCRPPRLPRPRPRPMVGPRP	-0.00233
RRIRRRPPRLPRPRPRPFHSPRP	0.00922
RRIRQRPPRLPRPRPRPYMIPRP	0.00875
RRIRPRPPRLPRPRPRPLKKPRP	0.295
RRIRIRPPRLPRPRPRPPCLPRP	-0.122
RRIRTRPPRLPRPRPRPFDVPRP	-0.243
RRIRTRPPRLPRPRPRPPCDPRP	0.0499
RRIRIRPPRLPRPRPRPCWFPRP	-0.165
RRIRDRPPRLPRPRPRPPADPRP	0.594
RRIRGRPPRLPRPRPRPALFPRP	1.23
RRIRIRPPRLPRPRPRPFKRPRP	-0.446
RRIRYRPPRLPRPRPRPMYAPRP	-0.0214
RRIRERPPRLPRPRPRPHQEPRP	0.0187

Sequence	shrunken log2 fold change
RRIRSRPPRLPRPRPRPASEPRP	-0.00793
RRIRNRPPRLPRPRPRPHNHPRP	-0.739
RRIRARPPRLPRPRPRPVFWPRP	0.699
RRIRGRPPRLPRPRPRPSTWPRP	0.22
RRIRDRPPRLPRPRPRPYIKPRP	-0.565
RRIRCRPPRLPRPRPRPETAPRP	0.308
RRIRERPPRLPRPRPRPHVNPRP	-1.04
RRIRIRPPRLPRPRPRPERHPRP	0.0733
RRIRWRPPRLPRPRPRPYILPRP	-0.849
RRIRERPPRLPRPRPRPIDSPRP	-0.0823
RRIRTRPPRLPRPRPRPSWIPRP	-0.525
RRIRGRPPRLPRPRPRPFMQPRP	0.165
RRIRVRPPRLPRPRPRPNYPPRP	-0.515
RRIRKRPPRLPRPRPRPVLVPRP	-0.0465
RRIRMRPPRLPRPRPRPFKTPRP	-0.117
RRIRKRPPRLPRPRPRPDGPPRP	0.022
RRIRFRPPRLPRPRPRPKRSPRP	1.12
RRIRGRPPRLPRPRPRPCKSPRP	-0.00288
RRIRNRPPRLPRPRPRPVHGPRP	-0.0581
RRIRFRPPRLPRPRPRPAACPRP	0.0906
RRIRYRPPRLPRPRPRPRTWPRP	-0.0833
RRIRCRPPRLPRPRPRPWHLPRP	-0.221
RRIRTRPPRLPRPRPRPSEAPRP	0.0182
RRIRHRPPRLPRPRPRPIFAPRP	0.158
RRIRFRPPRLPRPRPRPTDMPRP	0.0617

From the supplement of paper PMC9112550, “Optimization of the antimicrobial peptide Bac7 by deep mutational scanning” (BMC Biology, 2022)
